Reference: PMC11811891, “Structural insights into human TFIIIC promoter recognition” (Science Advances, 2023)

B1: TFIIIC35-TFIIIC63 heterodimer (complex, human)
chain 1: MAAAADERSPEDGEDEEEEEQLVLVELSGIIDSDFLSKCENKCKVLGIDTERPILQVDSCVFAGEYEDTLGTCVIFEENVEHADTEGNNKTVLKYKCHTMKKLSMTRTLLTEKKEGEENIGGVEWLQIKDNDFSYRPNMICNFLHENEDEEVVASAPDKSLELEEEEIQMNDSSNLSCEQEKPMHLEIEDSGPLIDIPSETEGSVFMETQMLP
chain 2: MAAEAADLGLGAAVPVELRRERRMVCVEYPGVVRDVAKMLPTLGGEEGVSRIYADPTKRLELYFRPKDPYCHPVCANRFSTSSLLLRIRKRTRRQKGVLGTEAHSEVTFDMEILGIISTIYKFQGMSDFQYLAVHTEAGGKHTSMYDKVLMLRPEKEAFFHQELPLYIPPPIFSRLDAPVDYFYRPETQHREGYNNPPISGENLIGLSRARRPHNAIFVNFEDEEVPKQPLEAAAQTWRRVCTNPVDRKVEEELRKLFDIRPIWSRNAVKANISVHPDKLKVLLPFIAYYMITGPWRSLWIRFGYDPRKNPDAKIYQVLDFRIRCGMKHGYAPSDLPVKAKRSTYNYSLPITVKKTSSQLVTMHDLKQGLGPSGTSGARKPASSKYKLKDSVYIFREGALPPYRQMFYQLCDLNVEELQKIIHRNDGAENSCTERDGWCLPKTSDELRDTMSLMIRQTIRSKRPALFSSSAKADGGKEQLTYESGEDEEDEEEEEEEEEDFKPSDGSENEMETEILDYV
notes: TFIIIC35, subunit of human TFIIIC; as the chain of m6; TFIIIC63, subunit of human TFIIIC; as the chain of m5; source: Sf21 insect cells, baculovirus, coexpressed within the six-subunit hTFIIIC complex; purified (anti-FLAG M2 agarose, Capto HiRes Q)
B2: TRR-TCT3-2 tRNA gene, 32P-labeled (dsDNA)
DNA 1: ACGTGTCTGGCTCTGTGGCGCAATGGATAGCGCATTGGACTTCTAGATAGTTAGAGAAATTCAAAGGTTGTGGGTTCGAGTCCCACAGAGTCGCTTTT
DNA 2: AAAAGCGACTCTGTGGGACTCGAACCCACAACCTTTGAATTTCTCTAACTATCTAGAAGTCCAATGCGCTATCCATTGCGCCACAGAGCCAGACACGT

Tests used:
[1] = target: T1, human TFIIIC subunit TFIIIC102 (human, UniProt Q9Y5Q9 1-886); test: cryo-EM structure; purified hTFIIIC (3.17 μM) alone or with human TRR-TCT3-2 tRNA gene DNA at a 1:1 molar ratio; EM buffer 20 mM Hepes pH 8, 225 mM KCl, 2 mM MgCl2, 5 mM DTT; 0.1% octyl-β-glucoside; separate reconstructions of τA and of dimeric τB; details: both partners purified
T1 construct: TFIIIC102, subunit of human TFIIIC; No truncation is described; also called τ131 in yeast (homolog); GTF3C3; source: Sf21 insect cells, baculovirus, coexpressed with the other five hTFIIIC subunits; purified (anti-FLAG M2 agarose, Capto HiRes Q)
T1 sequence: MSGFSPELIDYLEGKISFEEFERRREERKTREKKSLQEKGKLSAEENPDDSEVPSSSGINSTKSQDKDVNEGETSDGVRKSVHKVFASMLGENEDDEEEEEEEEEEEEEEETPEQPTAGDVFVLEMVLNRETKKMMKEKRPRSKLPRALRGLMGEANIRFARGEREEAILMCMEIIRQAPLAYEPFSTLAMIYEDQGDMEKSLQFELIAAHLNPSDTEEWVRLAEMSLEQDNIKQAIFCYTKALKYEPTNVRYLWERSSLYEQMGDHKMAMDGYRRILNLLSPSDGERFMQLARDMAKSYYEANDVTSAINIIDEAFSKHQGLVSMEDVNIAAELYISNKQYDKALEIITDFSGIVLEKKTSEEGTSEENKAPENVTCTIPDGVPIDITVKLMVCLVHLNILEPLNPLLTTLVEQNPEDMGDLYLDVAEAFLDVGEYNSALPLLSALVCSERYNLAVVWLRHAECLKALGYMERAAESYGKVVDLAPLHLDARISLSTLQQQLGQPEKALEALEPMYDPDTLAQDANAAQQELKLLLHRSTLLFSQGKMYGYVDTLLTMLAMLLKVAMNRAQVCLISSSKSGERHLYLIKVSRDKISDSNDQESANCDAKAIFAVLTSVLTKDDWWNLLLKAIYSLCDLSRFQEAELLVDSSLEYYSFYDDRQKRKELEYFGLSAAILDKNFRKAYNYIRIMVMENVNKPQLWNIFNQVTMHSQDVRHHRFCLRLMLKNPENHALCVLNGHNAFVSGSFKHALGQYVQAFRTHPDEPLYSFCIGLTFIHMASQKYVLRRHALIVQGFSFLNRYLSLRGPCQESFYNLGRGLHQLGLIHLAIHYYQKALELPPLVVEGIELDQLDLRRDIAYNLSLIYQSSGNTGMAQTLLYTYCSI

[2] = target: T2, human TFIIIC subunit TFIIIC220 (human, UniProt Q12789 1-2109); test: as above; details: both partners purified
T2 construct: TFIIIC220, largest subunit of human TFIIIC; 2109 amino acids as printed; No truncation is described; the expected mass of 624 kDa is that of the intact complex; also called τ138 in yeast (homolog); GTF3C1; source: Sf21 insect cells, baculovirus, coexpressed with the other five hTFIIIC subunits; purified (anti-FLAG M2 agarose, Capto HiRes Q); not shown: 3x FLAG, C-terminal, kept

[3] = target: TFIIIC220;TFIIIC110;TFIIIC102;TFIIIC90;TFIIIC63;TFIIIC35 (human;human;human;human;human;human, UniProt Q12789;Q8WUA4;Q9Y5Q9;Q9UKN8;Q9Y5Q8;Q969F1 1-2109;1-911;1-886;1-822;1-519;1-213, |||||); test: filter binding; 150 mM KCl, 2 mM MgCl2, 4 C; Filter binding: 20 mM Tris-HCl pH 7.5, 150 mM KCl, 2 mM MgCl2, 5 mM DTT, 30 min 4 C, ~0.5 nM DNA; EMSA: 20 mM Hepes pH 8, 225 mM KCl, 2 mM MgCl2, 5 mM DTT, RT 10 min, 0.8% agarose gel at 4 C; details: protein: recombinant;recombinant;recombinant;recombinant;recombinant;recombinant; tags: C-terminal 3xFLAG;N-terminal TEV-cleavable His;;;N-terminal TEV-cleavable His;; copies: 1;1;1;1;1;1; label: 5'-32P; blunt
Sequence of TFIIIC220;TFIIIC110;TFIIIC102;TFIIIC90;TFIIIC63;TFIIIC35 (Q12789 whole entry, chain 1 of 3): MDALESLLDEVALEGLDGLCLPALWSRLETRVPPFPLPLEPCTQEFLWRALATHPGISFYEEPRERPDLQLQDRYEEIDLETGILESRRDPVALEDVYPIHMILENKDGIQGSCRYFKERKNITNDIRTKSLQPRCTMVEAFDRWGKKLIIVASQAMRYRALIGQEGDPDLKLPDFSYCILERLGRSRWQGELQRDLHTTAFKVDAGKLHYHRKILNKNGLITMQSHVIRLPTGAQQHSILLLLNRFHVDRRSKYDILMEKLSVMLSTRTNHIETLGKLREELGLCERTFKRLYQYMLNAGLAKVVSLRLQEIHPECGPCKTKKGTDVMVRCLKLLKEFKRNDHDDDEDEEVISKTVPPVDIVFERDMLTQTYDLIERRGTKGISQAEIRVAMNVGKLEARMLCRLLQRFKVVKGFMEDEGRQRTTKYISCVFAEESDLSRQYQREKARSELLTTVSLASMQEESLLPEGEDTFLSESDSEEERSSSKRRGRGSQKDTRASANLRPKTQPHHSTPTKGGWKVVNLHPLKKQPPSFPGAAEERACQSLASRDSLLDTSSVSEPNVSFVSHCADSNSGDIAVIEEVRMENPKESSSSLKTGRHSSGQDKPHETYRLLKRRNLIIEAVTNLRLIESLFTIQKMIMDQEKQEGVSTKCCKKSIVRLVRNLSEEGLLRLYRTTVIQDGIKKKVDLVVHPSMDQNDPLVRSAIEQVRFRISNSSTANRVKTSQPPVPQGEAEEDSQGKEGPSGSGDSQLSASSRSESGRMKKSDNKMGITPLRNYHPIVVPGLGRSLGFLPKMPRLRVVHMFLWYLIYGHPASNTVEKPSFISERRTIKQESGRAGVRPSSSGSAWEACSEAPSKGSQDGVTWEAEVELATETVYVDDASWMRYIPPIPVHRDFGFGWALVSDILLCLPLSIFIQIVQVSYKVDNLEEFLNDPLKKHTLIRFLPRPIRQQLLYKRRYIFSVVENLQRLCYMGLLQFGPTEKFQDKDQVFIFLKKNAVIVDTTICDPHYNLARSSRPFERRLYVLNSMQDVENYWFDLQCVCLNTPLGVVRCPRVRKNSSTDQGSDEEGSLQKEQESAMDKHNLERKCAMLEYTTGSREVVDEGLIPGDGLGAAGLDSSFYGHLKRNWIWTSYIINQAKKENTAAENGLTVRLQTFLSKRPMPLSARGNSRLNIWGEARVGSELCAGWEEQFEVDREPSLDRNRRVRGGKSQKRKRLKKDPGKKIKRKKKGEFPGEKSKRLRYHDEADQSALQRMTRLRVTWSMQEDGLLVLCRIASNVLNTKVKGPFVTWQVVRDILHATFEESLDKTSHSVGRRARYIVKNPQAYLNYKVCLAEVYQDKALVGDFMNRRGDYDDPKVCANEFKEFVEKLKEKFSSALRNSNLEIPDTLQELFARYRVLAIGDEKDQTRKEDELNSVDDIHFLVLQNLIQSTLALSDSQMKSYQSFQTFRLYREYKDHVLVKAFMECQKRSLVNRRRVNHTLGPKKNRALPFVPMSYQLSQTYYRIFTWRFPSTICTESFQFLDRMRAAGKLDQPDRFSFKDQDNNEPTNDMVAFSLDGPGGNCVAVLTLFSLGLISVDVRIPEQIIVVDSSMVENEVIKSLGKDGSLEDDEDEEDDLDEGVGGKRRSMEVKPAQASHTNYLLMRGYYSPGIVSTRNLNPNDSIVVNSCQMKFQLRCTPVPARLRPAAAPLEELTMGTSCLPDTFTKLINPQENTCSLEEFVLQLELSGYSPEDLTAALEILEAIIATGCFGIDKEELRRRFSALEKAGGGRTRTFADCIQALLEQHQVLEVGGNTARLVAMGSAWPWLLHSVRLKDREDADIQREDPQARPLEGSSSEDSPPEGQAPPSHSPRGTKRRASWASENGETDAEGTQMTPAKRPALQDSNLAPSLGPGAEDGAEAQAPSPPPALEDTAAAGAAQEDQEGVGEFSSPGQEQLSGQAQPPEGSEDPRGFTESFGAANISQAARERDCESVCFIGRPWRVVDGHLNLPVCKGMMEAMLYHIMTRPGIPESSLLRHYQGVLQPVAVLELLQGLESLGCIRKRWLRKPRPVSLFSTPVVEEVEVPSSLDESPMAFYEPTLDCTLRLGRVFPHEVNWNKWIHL
Sequence of TFIIIC220;TFIIIC110;TFIIIC102;TFIIIC90;TFIIIC63;TFIIIC35 (Q8WUA4 whole entry, chain 2 of 3): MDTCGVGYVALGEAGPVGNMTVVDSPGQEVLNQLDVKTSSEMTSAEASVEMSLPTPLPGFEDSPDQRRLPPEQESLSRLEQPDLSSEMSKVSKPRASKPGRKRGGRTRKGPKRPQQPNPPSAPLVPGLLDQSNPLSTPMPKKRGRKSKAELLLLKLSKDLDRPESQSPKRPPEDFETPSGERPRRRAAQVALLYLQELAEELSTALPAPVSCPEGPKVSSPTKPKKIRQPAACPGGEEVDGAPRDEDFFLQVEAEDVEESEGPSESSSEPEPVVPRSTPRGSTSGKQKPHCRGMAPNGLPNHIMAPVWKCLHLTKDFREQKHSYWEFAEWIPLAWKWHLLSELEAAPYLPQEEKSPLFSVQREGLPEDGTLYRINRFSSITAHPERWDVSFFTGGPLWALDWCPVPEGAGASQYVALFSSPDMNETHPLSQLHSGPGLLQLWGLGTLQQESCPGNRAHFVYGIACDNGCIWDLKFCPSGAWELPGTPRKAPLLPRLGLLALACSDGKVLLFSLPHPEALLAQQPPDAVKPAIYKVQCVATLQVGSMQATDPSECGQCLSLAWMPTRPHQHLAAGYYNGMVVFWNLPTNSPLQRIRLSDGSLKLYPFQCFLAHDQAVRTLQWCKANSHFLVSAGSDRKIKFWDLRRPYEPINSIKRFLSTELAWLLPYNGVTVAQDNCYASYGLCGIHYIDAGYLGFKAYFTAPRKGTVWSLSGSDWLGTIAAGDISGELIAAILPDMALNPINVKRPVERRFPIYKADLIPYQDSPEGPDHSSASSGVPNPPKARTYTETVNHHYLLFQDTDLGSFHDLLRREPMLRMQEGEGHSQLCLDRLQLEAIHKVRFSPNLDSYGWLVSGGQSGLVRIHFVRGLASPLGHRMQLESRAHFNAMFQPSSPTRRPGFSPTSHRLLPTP
Sequence of TFIIIC220;TFIIIC110;TFIIIC102;TFIIIC90;TFIIIC63;TFIIIC35 (Q9UKN8 whole entry, chain 4 of 3): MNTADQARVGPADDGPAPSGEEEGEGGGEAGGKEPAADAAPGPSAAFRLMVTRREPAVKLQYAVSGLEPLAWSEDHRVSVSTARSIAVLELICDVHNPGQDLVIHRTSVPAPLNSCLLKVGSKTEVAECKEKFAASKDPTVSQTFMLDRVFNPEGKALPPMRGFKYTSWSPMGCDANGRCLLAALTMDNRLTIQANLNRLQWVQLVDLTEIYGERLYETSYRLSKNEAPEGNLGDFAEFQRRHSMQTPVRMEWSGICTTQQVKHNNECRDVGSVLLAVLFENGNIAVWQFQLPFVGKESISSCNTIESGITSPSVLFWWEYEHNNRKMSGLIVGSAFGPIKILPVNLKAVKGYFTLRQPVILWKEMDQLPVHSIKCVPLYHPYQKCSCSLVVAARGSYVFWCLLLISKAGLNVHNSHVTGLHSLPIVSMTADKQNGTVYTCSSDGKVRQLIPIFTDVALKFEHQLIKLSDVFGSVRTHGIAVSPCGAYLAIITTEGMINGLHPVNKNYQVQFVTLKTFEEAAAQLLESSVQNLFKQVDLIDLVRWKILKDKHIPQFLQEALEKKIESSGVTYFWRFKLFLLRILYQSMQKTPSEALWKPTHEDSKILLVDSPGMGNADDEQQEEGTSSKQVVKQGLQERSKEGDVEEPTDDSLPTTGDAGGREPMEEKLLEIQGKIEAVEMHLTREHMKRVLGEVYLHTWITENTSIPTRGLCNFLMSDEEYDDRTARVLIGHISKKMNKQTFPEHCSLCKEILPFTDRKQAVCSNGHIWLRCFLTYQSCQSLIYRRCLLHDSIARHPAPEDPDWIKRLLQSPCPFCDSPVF

T2 sequence (Q12789 whole entry, the tested form may be a part): as the sequence (Q12789 whole entry, chain 1 of 3) above

| Binder | binding result [1] | binding result [2] | Kd [3] |
| --- | --- | --- | --- |
| B1 | binds | binds |  |
| B2 |  |  | 40 nM |
